US20240209080A1 (PROFOUNDBIO US, published 2024)
Residue numbers refer to the chain shown, from its start.

B1: FR107-ADC (reference antibody mirvetuximab huFR107 conjugated to mc-VC-PAB-MMAE) (antibody, V domains shown)
VH: QVQLVQSGAEVVKPGASVKISCKASGYTFTGYFMNWVKQSPGQSLEWIGRIHPYDGDTFYNQKFQGKATLTVDKSSNTAHMELLSLTSEDFAVYYCTRYDGSRAMDYWGQGTTVTVSS
VL: DIVLTQSPLSLAVSLGQPAIISCKASQSVSFAGTSLMHWYHQKPGQQPRLLIYRASNLEAGVPDRFSGSGSKTDFTLTISPVEAEDAATYYCQQSREYPYTFGGGTKLEIK
modifications: mc-VC-PAB-MMAE on cysteine thiols after TCEP reduction (positions not stated; DAR within 3~4)
notes: Control conjugate
B2: F8-ADC (antibody F8 conjugated to mc-VC-PAB-MMAE) (antibody, V domains shown)
VH: EVQLLESGGGVVQHGRSLRLSCAASGFTFSSYGMHWVRQAPGKGLEWVAVISYDGSNKYYADSVKGRFTISRDNSKNTLYLQMNSLRAEDTAVYYCARPRAYYGAYGSSFDYWGQGTQVTVSS
VL: EIVMTQSPSSVSASVGDRVAITCRASQGISSWLAWYQQKPGKAPKLLIYAASSLQSGVPSRFSGSGSGTDFTLTISSLQPEDFATYYCQQSYSTPLTFGGGTKVDIK
modifications: mc-VC-PAB-MMAE on cysteine thiols after TCEP reduction (positions not stated; DAR within 3~4)
notes: Antibody-drug conjugate; also called F8 immunoconjugate
B3: F26-ADC (antibody F26 conjugated to mc-VC-PAB-MMAE) (antibody, V domains shown)
VH: B2 VH with H14R, Q82P
VL: B2 VL
modifications: mc-VC-PAB-MMAE on cysteine thiols after TCEP reduction (positions not stated; DAR within 3~4)
notes: Antibody-drug conjugate; also called F26 immunoconjugate
B4: F131-ADC (antibody F131 conjugated to mc-VC-PAB-MMAE) (antibody, V domains shown)
VH: B2 VH with H14P, D73A
VL: B2 VL
modifications: mc-VC-PAB-MMAE on cysteine thiols after TCEP reduction (positions not stated; DAR within 3~4)
notes: Antibody-drug conjugate; also called F131 immunoconjugate
B5: anti-FOLR1 antibody F40 (antibody, V domains shown)
VH: EVQLLESGGGVVQPGRSLRLSCAASGFTFSSYAMHWVRQAPGKGLEWVAVISYDGSNKYYADSVKGRFIISRDNSKNTVYLQMNSLRAEDTAVYYCARPTYVFTYTGSSFDYWGQGTQVTVSS
VL: DIQVTQSPSSLSASLGDTVSITCRASRGLTDSVAWYQQKPGQAPKLLIYAASTLQSGVPSRFGGSGSGSYFTLTITSLQPEDVATYYCQNYKSAPWTFGQGTKVEIK
notes: also called clone F40
B6: anti-FOLR1 antibody F1 (antibody, V domains shown)
VH: B2 VH with H14P
VL: B2 VL
notes: also called clone F1
B7: anti-FOLR1 antibody F26 (antibody, V domains shown)
VH: B2 VH with H14R, Q82P
VL: B2 VL
notes: also called clone F26
B8: anti-FOLR1 antibody F100 (antibody, V domains shown)
VH: B2 VH with H14P, D73P
VL: B2 VL
notes: also called clone F100
B9: anti-FOLR1 antibody F138 (antibody, V domains shown)
VH: B2 VH with H14P, R72T, D73H
VL: B2 VL
notes: also called clone F138
B10: anti-FOLR1 antibody F48 (antibody, V domains shown)
VH: B2 VH with H14P, Q82H
VL: B2 VL
notes: also called clone F48
B11: anti-FOLR1 antibody F112 (antibody, V domains shown)
VH: B2 VH with H14P, D73H
VL: B2 VL
notes: also called clone F112
B12: anti-FOLR1 antibody F123 (antibody, V domains shown)
VH: B2 VH with H14P, G15E, D73A
VL: B2 VL
notes: also called clone F123
B13: anti-FOLR1 antibody F8 (antibody, V domains shown)
VH: B2 VH
VL: B2 VL
notes: also called clone F8
B14: anti-FOLR1 antibody F131 (antibody, V domains shown)
VH: B2 VH with H14P, D73A
VL: B2 VL
notes: also called F131 mAb; clone F131

molecular target: T1, human FOLR1 on cells (Hela, RPTEC/TERT1, OVCAR3, OV90, IGROV-1, JEG-3, KB, NCI-H441) (human, UniProt P15328 25-234); assay: cell-based or functional assay
T1 sequence (P15328 25-234): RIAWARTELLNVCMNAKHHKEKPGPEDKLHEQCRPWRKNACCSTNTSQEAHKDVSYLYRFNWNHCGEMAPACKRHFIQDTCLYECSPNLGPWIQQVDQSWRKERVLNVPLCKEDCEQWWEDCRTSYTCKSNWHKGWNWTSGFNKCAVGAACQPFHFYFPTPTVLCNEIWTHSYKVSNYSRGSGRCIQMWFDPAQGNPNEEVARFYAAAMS

| Binder | Internalization ratio (%), Hela, 4 h [%] | Internalization ratio (%), Hela, 24 h [%] | Internalization ratio (%), OV90, 4 h [%] | Internalization ratio (%), OVCAR3, 4 h [%] | Internalization ratio (%), OVCAR3, 24 h [%] |
| --- | --- | --- | --- | --- | --- |
| B1 | 58.4 | 75.1 | 28 | 26.3 | 44.8 |
| B2 | 45.7 | 73.1 | 32.7 | 34.5 | 47.6 |
| B3 | 43.3 | 75.5 | 21.6 | 38.3 | 48.1 |
| B4 | 50 | 74.8 | 15 | 35.2 | 47.7 |

molecular target: T2, human FOLR1 protein, His Tag (ACRO-FO1-H52H1) (human, UniProt P15328 25-233); assay: ELISA OD450 on human FOLR1 divided by OD450 of IgG level ELISA
T2 construct: not shown: His tag
T2 sequence (P15328 25-233 limits assumed): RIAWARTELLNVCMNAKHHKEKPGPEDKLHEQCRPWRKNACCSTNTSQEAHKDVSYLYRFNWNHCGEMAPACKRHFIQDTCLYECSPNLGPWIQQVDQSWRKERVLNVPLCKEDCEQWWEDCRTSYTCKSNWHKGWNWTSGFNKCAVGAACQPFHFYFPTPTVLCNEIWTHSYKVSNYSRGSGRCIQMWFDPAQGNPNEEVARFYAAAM

| Binder | Target binding/IgG level |
| --- | --- |
| B5 | 1.02 ratio of OD450 |
| B6 | 1.08 ratio of OD450 |
| B7 | 1.21 ratio of OD450 |
| B8 | 1.48 ratio of OD450 |
| B9 | 1.2 ratio of OD450 |
| B10 | 1.12 ratio of OD450 |
| B11 | 1.12 ratio of OD450 |
| B12 | 1.06 ratio of OD450 |
| B13 | 1.12 ratio of OD450 |
| B14 | 1.02 ratio of OD450 |

molecular target: T1, human FOLR1 on cells (Hela, …); assay: flow cytometry on JEG-3 cells, PE anti-human Fc; unit from the axis 'Con.nM'

| Binder | EC50 [nM] |
| --- | --- |
| B14 | 1.55 |

molecular target: T3, Recombinant His-tagged FOLR1 (Example 5 ELISA) (UniProt P15328 25-233, limits assumed); assay: ELISA on coated recombinant His-tagged FOLR1, OD450; unit from the axis 'ADC conc ng/ml'
T3 construct: also called FOLR1-his; recombinant protein FOLR-1; not shown: His tag
T3 sequence (P15328 25-233 limits assumed): as above

| Binder | EC50 [ng/mL] |
| --- | --- |
| B1 | 3.39 |
| B2 | 6.53 |
| B3 | 8.04 |
| B4 | 6.64 |

molecular target: T3, Recombinant His-tagged FOLR1 (Example 5 …); assay: ELISA on coated recombinant His-tagged FOLR1, OD450; unit from the axis 'ng/ml'; curves labelled without '-ADC'

| Binder | EC50 [ng/mL] |
| --- | --- |
| B7 | 4.68 |
| B13 | 8.48 |
| B14 | 8.46 |
